Reference: patent US20260049134A1 (UNIVERSITY OF FLORIDA RESEARCH FOUNDATION, published 2026)

T1: ANXA1
T1 construct: coated protein in the ELISA; also called ANXA1-His (R&D Systems)
T1 chain: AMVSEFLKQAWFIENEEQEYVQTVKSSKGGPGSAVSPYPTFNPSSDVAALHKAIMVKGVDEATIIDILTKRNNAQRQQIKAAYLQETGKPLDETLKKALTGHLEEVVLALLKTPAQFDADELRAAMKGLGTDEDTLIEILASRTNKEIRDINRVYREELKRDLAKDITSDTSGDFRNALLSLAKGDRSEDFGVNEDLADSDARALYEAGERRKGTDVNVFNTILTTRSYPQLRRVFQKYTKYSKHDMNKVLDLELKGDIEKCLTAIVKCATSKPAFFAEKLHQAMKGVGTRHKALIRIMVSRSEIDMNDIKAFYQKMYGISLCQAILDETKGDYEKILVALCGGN

T2: IGSF11 (VSIG3)
T2 construct: coated protein in the ELISA; also called IGSF11-Fc (R&D Systems)
T2 chain: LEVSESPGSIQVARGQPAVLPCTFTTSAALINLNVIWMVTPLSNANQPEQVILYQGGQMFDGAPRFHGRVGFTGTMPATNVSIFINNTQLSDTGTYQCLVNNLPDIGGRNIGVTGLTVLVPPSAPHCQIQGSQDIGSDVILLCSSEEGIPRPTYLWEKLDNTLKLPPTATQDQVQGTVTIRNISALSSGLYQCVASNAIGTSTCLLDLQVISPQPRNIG

T3: DCC
T3 construct: coated protein in the ELISA; also called DCC-His (R&D Systems)
T3 chain: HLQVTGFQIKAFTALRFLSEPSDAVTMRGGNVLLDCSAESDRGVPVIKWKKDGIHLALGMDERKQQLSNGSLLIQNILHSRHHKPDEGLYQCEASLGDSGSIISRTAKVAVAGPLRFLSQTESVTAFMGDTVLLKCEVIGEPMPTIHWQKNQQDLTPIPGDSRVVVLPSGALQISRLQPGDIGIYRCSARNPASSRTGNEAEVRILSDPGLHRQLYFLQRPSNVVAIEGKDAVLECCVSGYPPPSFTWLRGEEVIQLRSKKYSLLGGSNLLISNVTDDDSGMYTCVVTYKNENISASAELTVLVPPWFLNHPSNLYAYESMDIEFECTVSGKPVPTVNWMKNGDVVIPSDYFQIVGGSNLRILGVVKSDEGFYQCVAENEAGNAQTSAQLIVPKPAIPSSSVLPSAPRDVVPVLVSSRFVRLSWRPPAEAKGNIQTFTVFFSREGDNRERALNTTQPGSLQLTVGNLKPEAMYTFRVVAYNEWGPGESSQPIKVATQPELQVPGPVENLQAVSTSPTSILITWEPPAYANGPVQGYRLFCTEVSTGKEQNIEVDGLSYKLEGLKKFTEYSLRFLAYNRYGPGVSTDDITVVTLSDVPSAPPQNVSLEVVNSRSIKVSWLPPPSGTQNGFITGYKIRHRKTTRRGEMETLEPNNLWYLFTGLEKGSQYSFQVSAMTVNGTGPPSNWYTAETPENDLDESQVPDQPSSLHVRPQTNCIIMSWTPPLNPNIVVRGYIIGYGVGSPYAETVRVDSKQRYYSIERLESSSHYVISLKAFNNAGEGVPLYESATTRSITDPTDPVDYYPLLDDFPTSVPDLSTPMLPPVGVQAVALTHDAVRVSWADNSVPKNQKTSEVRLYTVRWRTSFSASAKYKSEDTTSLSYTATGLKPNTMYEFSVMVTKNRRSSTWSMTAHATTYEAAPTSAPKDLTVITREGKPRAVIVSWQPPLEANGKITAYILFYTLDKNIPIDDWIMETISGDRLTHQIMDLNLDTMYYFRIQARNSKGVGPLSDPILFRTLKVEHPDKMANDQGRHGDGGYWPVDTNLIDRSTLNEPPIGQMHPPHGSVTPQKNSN

T4: SELL (L-Selectin)
T4 construct: coated protein in the ELISA; also called SELL-Fc-His (R&D Systems)
T4 chain: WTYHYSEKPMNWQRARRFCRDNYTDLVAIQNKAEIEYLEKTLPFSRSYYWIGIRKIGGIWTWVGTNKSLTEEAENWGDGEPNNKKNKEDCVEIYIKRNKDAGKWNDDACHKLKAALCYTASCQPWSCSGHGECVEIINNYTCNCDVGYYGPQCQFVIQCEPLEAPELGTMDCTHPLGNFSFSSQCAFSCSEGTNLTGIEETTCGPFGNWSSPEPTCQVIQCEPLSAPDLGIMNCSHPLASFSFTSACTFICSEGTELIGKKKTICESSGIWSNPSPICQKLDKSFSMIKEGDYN


How the values were obtained:
ANXA1 [1] = target: T1, ANXA1; assay: ELISA on coated ANXA1-His
Protocol: (§1) Recombinant purified ECDs (50-150 ng) of each putative target protein were coated, incubated with 150 ng of the indicated primary antibody, and binding was detected using a peroxidase-conjugated anti-human Fab secondary antibody. Heatmap represents averages of technical triplicates. (8B) Target validation via siRNA knockdown. H929 cells were transfected with siRNA pools targeting the putative antibody targets ICAM1, CADM1, and PTPRG. Cells were then subjected to cognate IgG binding analysis via flow cytometry. (NT, non-targeting siRNA).
(§2) ELISA ELISA was conducted as described previously. Briefly, 50-150 ng of antigen was coated overnight in half-area 96-well plates at 4° C., blocked with 3% BSA at 37° C. for 1 h, and 150 ng of chimeric rabbit/human IgG1 was added, incubating for 2 h at 37° C. […] After incubating at 37° C. for 15 min-1 h (depending on intensity of controls), data were acquired using a SpectraMax M5 plate reader (Molecular Devices).

IGSF11 (VSIG3) = target: T2, IGSF11 (VSIG3); assay: ELISA on coated IGSF11-Fc
Protocol: as §1, §2

ICAM1-Fc (R&D Systems) = target: T5, ICAM1-Fc (R&D Systems) (human, UniProt P05362 28-480); assay: ELISA on coated ICAM1-Fc, 150 ng IgG1; None 0.060
T5 construct: Bought; also called ICAM-1/CD54; not shown: Fc of the bought fusion protein
T5 sequence (P05362 28-480): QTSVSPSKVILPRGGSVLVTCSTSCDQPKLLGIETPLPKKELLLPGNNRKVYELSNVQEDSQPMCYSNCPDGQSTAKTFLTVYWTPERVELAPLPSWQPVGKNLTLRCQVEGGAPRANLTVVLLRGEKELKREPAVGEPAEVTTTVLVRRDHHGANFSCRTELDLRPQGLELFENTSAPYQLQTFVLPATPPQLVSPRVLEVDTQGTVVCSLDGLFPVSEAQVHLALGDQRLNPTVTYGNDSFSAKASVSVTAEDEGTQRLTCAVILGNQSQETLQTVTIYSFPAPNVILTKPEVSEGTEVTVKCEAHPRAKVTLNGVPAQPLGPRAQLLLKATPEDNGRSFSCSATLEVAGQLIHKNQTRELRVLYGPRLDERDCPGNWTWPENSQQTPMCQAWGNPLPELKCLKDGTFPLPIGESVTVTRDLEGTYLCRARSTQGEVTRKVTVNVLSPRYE
Protocol: as §1, §2

ANXA1 [2] = target: T1, ANXA1; assay: ELISA on coated ANXA1-His, 150 ng IgG1; None 0.098
Protocol: as §1, §2

DCC = target: T3, DCC; assay: ELISA on coated DCC-His, 150 ng IgG1; None 0.095
Protocol: as §1, §2

SELL (L-Selectin) = target: T4, SELL (L-Selectin); assay: ELISA on coated SELL-Fc-His, 150 ng IgG1; None 0.096
Protocol: as §1, §2

| Binder | binding result (ANXA1 [1]) | binding result (IGSF11 (VSIG3)) | ELISA Absorbance (405 nm-570 nm) (ICAM1-Fc (R&D Systems)) | ELISA Absorbance (405 nm-570 nm) (ANXA1 [2]) | ELISA Absorbance (405 nm-570 nm) (DCC) | ELISA Absorbance (405 nm-570 nm) (SELL (L-Selectin)) |
| --- | --- | --- | --- | --- | --- | --- |
| HW-8 chimeric rabbit-human IgG1 LA/LA/PG (antibody, V domains shown, Fc-silenced (L234A/L235A/P329G) IgG1, kappa; Alexa Fluor 647-labeled in single-step flow cytometry; Cluster C-45) VH: QSLEESGGRLVTPGTPLTLTCTVSGFSLSSYAMSWVRQAPGKGLEWIGAISTGGSTTYASWAKGRFTISKTSSTTVDLKMTSLTTEDTATYFCVRHFRLWGPGTLVTISS VL: QVLTQTPSSVSAAVGGTVTIKCQASQSIGSALAWFQQKPGQRPKLLIYRASNLASGVPSRFKGSGSGTEFALTISGVQREDAATYYCLGGAAAVWAFGAGTNVEIKR | no binding (tested: 150 ng IgG1 per well) | no binding (tested: 150 ng IgG1 per well) | 0.067 | 0.077 | 0.074 | 0.074 |
| HW-16 chimeric rabbit-human IgG1 LA/LA/PG (antibody, V domains shown, Fc-silenced (L234A/L235A/P329G) IgG1, kappa; Alexa Fluor 647-labeled in single-step flow cytometry; Cluster C-45) VH: QSLEESGGRLVTPGTPLTLTCTASGFSLSSYAMSWVRQAPGKGLEWIGTMPTGGGTYYASWAKGRFTISKTSTTVDLQITSPTTEDTATYFCAKHWNIWGPGTLVTISS VL: DIVLTQTPSSTSTAVGDTVTINCRASQSIGRNLAWFQQKPGQPPKLLIYRASNLASGVPSRFKGSGSRTQFTLTISGVQREDAATYYCLGSYSSSDTAFGGGTELEILR | no binding (tested: 150 ng IgG1 per well) | no binding (tested: 150 ng IgG1 per well) | 0.055 | 0.111 | 0.129 | 0.177 |
| HW-81 chimeric rabbit-human IgG1 LA/LA/PG (antibody, V domains shown, Fc-silenced (L234A/L235A/P329G) IgG1, lambda; Alexa Fluor 647-labeled in single-step flow cytometry; Cluster C-45) VH: QKQLVESGGGLVTPGGTLTLTCTVSGFSLSSNGVSWVRQAPGKGLEYIGLIRSIGSTYYATWAKGRFTISKTSTTVDLKITSPTTEDTATYFCARGGYRNGFKLWGPGTLVTVSS VL: QPVLTQSPSVSAALGASAKLTCTLSSAHKTYYIEWYQQQHPGKAPRYLMQLQSDGSYTKGTGVPDRFSGSSSGADRYLIISSVQAEDEADYICGVIDSAVYVFGGGTQLTVTG | no binding (tested: 150 ng IgG1 per well) | no binding (tested: 150 ng IgG1 per well) | 0.051 | 0.065 | 0.068 | 0.083 |
| HW-56 chimeric rabbit-human IgG1 LA/LA/PG (antibody, V domains shown, Fc-silenced (L234A/L235A/P329G) IgG1, kappa; Alexa Fluor 647-labeled in single-step flow cytometry; Cluster C-45) VH: QSVKESEGGLFKPTDTLTLTCTASGFTVSTNAVTWVRQAPGNGLEYIGTIGRSGSAYFASWAKRRSTLTRDINLNTVTLKMTSLTAADTATYFCVRGSPGYRTAISIWGPGTLVTISS VL: AVMTQTPSSTSAAVEGTVTINCQASQSISNRLSWFQQKPGQPPKLLIYQASTLASGVPSRFKGSGSGTEFTLTISGVQREDAATYYCLGSYSSSDASFGGGTKLEIKR | no binding (tested: 150 ng IgG1 per well) | no binding (tested: 150 ng IgG1 per well) | 0.074 | 0.082 | 0.088 | 0.117 |
| HW-17 chimeric rabbit-human IgG1 LA/LA/PG (antibody, V domains shown, Fc-silenced (L234A/L235A/P329G) IgG1, lambda; Alexa Fluor 647-labeled in single-step flow cytometry; Cluster C-1) VH: QSLGESRGRLVTPDETLTLTCTVSGIDLSSNAMSWVRQAPGEGLEWIGTINTGGRAYYASWAKGRFTISRTSTTVDLKMTSLTTEDTATYFCARERYSDGRAYDIWGPGTLVTISS VL: SFVLTQPASVQVNLGQTVSLTCTADTLSRRYASWYQQKPGQAPVLLIYTDSNRPSGIPDRFSGSSSGNTATLTISGAQAGDEADYYCATDDGSGSIYQYVFGGGTQLTVTG | no binding (tested: 150 ng IgG1 per well) | no binding (tested: 150 ng IgG1 per well) | 0.071 | 0.073 | 0.077 | 0.072 |
| HW-113 chimeric rabbit-human IgG1 LA/LA/PG (antibody, V domains shown, Fc-silenced (L234A/L235A/P329G) IgG1, lambda; Alexa Fluor 647-labeled in single-step flow cytometry) VH: QKQLVESGGGLVQPGGSLTLTCTVSGFSLNKYYMGWFRQAPGKGLEWIGVISRSGDTYYSSWAKGRFTISKASTTVDLRITSPTTEDTATYFCARDASSPGFHGDRLDLWGQGTLVTVSS VL: SFVLTQPASVQVNLGQTVSLTCTADTLSRSYASWYQQKPGQAPVLLIYRDTSRPSGVPDRFSGSSSGNTATLTISGAQAGDEADYYCATSDGIGSNYLWVFGGGTQLTVTG | no binding (tested: 150 ng IgG1 per well) | no binding (tested: 150 ng IgG1 per well) | 0.498 | 0.073 | 0.072 | 0.088 |
| HW-97 chimeric rabbit-human IgG1 LA/LA/PG (antibody, V domains shown, Fc-silenced (L234A/L235A/P329G) IgG1, lambda; Alexa Fluor 647-labeled in single-step flow cytometry; Prototype of cluster C-97) VH: QKQLVESGGRLVTPGTPLTLTCTVTGIDLSSHGMSWVRQAPGKGLEWIGVIYPSGSTWYASWARGRFTISKTSTTVDLKMTSLTTEDTATHFCARGDVGGADNNIWGPGTLVTVSS VL: SFVLTQPASVQVDLGQTVSLTCTAETLSRSYASWYQQKPGQAPVLLIYRDTSRPSGVPDRFSGSSSGNTATLTISGAQAGDEADYYCATSDGSGSSYQYVFGGGTQLTVTG | no binding (tested: 150 ng IgG1 per well) | no binding (tested: 150 ng IgG1 per well) | 0.081 | 0.075 | 0.065 | 0.075 |
| HW-101 chimeric rabbit-human IgG1 LA/LA/PG (antibody, V domains shown, Fc-silenced (L234A/L235A/P329G) IgG1, lambda; Alexa Fluor 647-labeled in single-step flow cytometry; Cluster C-97) VH: QEQLVESGGRLVTPGTPLTLTCKASGFSLGKYDMSWVRQAPGKGLEWIGTIYAGSGSTWYASWAKGRFTISKTSTTVDLKMTSLTTEDTATYFCARDFLGVNSIWGPGTLVTISS VL: SFVLTQPASVQVNLGQTVSLTCTADTLSRSYASWYQQKPDQAPVLLIHRDTSRPSGVPDRFSGSNSGNTATLTISGAQAGDEADYYCATSDGSGSNFHFVFGGGTQLTVTG | no binding (tested: 150 ng IgG1 per well) | no binding (tested: 150 ng IgG1 per well) | 0.055 | 0.066 | 0.057 | 0.072 |
